In patent publication US20160011195A1:

Legend:
[1] = biological target: PLK1 326-603 (longer PBD construct) (human) (UniProt P53350); assay: competitive FP, displacement of fluorescent tracer peptide from PLK1 326-603
[2] = biological target: PLK1 PBD protein (residues 367-603) (human) (UniProt P53350); assay: competitive FP, displacement of fluorescein tracer SEQ ID NO: 7 from PLK1 PBD (367-603)
[3] = biological target: PLK1 PBD protein (residues 367-603) (human) (UniProt P53350); assay: competitive FP

PLK1 PBD protein (residues 367-603) (human), sequence (P53350 367-603 limits assumed): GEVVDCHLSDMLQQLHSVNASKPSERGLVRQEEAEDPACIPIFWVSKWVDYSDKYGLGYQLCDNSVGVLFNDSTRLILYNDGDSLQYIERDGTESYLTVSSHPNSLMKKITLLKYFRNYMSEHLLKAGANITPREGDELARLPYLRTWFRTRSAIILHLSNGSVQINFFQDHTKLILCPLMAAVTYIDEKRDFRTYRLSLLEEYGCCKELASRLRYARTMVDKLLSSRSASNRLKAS
PLK1 326-603 (longer PBD construct) (human), sequence (P53350 326-603 limits assumed): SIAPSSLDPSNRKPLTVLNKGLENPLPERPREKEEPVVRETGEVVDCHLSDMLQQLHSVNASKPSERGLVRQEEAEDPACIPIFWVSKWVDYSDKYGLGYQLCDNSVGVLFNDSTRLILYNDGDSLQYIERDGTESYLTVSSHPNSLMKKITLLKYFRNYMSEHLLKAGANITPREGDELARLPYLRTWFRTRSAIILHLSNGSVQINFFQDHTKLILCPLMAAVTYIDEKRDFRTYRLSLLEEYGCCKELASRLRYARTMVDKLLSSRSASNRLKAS

Substance | IC50 [2] | also measured
LLCS[pT]PNGL, native phospho-CDC25c PBD binding sequence (sample no. 292) (peptide) | 0.42 µM | IC50 [1]: 1.3 µM
Ac-AHS[pT]AI (sample no. 5782) (peptide) | 15 µM | fold higher IC50 (against Ac-LHS[pT]AI, sample no. 5781) [3]: 3 fold
S[pT]PNGL (sample no. 5714) (peptide) | > 600 µM | –
Ac-LHS[pT]AI (sample no. 5781) (peptide) | 5 µM | fold less potent than the parent peptide containing the N-terminal LLC [3]: 6 fold; fold more potent than the non-acetylated version (sample no. 5649) [3]: 40 fold
Ac-PLHS[pT]A (sample no. 5743) (peptide) | 2 µM | –
LDCS[pT]PNGL (sample no. 5795) (peptide) | 3 µM | –
Ac-LLCS[pT]PNGL (sample no. 5821) (peptide) | 0.5 µM | –
3G1-S[pT]PNGL (4-ethylbenzoic acid) (Sample No. 5788) (peptide) | 16.5 µM | –
3G2-S[pT]PNGL (4-butylbenzoic acid) (Sample No. 5827) (peptide) | 8.6 µM | –
LHS[pT]AI (sample no. 5649) (peptide) | 200 µM | –
